Measured values reported in US20250277059A1, “ANTIBODY USED TO TREAT CORONAVIRUS INFECTION” (priority 2022, published 2025).

T1: TMPRSS-11D (human, UniProt O60235)
T1 sequence (single chain, looked up): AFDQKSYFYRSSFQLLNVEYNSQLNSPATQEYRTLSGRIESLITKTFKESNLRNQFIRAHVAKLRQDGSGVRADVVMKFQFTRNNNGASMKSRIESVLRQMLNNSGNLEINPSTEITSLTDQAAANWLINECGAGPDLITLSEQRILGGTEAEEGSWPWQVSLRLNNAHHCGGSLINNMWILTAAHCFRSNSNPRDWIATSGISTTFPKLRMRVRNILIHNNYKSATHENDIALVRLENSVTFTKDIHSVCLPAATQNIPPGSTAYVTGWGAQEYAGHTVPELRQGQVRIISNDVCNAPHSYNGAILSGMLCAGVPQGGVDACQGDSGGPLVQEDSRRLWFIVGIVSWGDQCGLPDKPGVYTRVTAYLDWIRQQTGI

T2: TMPRSS-11E (human, UniProt Q9UL52)
T2 sequence (single chain, looked up): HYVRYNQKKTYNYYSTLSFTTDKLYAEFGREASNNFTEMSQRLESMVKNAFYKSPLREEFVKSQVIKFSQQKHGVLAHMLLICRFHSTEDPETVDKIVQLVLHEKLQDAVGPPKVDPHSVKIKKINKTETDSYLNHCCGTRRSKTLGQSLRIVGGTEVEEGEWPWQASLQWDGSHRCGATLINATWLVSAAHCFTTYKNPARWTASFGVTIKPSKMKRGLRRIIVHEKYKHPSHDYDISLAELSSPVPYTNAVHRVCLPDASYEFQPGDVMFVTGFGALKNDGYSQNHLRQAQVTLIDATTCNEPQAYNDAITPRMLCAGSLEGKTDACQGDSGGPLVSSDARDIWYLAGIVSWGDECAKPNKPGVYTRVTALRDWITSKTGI

T3: TMPRSS-13 (human, UniProt Q9BYE2)
T3 sequence (single chain, looked up): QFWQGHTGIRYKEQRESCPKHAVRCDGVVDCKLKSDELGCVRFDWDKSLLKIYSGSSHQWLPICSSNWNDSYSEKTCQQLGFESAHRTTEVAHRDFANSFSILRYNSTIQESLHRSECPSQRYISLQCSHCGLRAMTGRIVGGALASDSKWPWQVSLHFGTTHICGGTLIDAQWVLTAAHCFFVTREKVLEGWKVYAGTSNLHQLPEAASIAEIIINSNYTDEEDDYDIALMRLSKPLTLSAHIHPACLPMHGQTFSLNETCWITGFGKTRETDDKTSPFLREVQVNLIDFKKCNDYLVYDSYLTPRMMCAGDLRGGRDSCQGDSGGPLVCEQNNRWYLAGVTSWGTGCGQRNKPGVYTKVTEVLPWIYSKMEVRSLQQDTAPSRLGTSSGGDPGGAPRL


Key:
[1] = test system: TMPRSS2 of non-human animal species; format: binding; settings: Table 3; species whose TMPRSS2 is bound
human TMPRSS2 [2] = biological target: T4, human TMPRSS2 (Homo sapiens, UniProt O15393); experiment: BIACore binding assay of anti-TMPRSS2 antibodies; settings: Table 1, mouse mAbs, 25° C.
Target sequence in this assay (O15393 106-492 limits assumed): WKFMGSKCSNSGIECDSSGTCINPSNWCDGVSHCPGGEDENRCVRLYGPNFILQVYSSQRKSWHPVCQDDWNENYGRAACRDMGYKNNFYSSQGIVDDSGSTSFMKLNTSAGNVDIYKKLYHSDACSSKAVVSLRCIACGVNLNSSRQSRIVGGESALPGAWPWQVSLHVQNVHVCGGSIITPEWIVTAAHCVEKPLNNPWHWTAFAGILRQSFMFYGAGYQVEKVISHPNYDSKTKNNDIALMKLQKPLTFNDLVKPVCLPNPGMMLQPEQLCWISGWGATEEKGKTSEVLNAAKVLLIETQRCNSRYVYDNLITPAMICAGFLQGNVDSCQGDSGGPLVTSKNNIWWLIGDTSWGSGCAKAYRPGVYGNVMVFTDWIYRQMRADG

[3] = biological target: T5, Human TMPRSS2 recombinant protein, extracellular region (N-terminal His tag, C-terminal Strep-tag II) (human, UniProt O15393 106-492); experiment: SPR (BIACore)
T5 construct: also called Human TMPRSS2 recombinant proteins; extracellular region of human TMPRSS2

[4] = biological target: T6, Human TMPRSS2 expressed on cells (human, UniProt O15393 1-492)
T6 construct: also called TMPRSS2 expressing cells; Daudi-TMPRSS2 transfectant

TMPRSS-11D = biological target: T1, TMPRSS-11D; experiment: ELISA, Strep-tagged protein on streptavidin plate
TMPRSS-11E = biological target: T2, TMPRSS-11E; experiment: ELISA, Strep-tagged protein on streptavidin plate
TMPRSS-11F = TMPRSS-11F (human, UniProt Q6ZWK6); experiment: ELISA, Strep-tagged protein on streptavidin plate
TMPRSS-13 = biological target: T3, TMPRSS-13; experiment: ELISA, Strep-tagged protein on streptavidin plate
human TMPRSS2 [5] = biological target: T4, human TMPRSS2; experiment: Competitive inhibition between anti-TMPRSS2 mAbs (flow cytometry); format: binding; settings: FIG. 3C
Target sequence in this assay (O15393 whole entry): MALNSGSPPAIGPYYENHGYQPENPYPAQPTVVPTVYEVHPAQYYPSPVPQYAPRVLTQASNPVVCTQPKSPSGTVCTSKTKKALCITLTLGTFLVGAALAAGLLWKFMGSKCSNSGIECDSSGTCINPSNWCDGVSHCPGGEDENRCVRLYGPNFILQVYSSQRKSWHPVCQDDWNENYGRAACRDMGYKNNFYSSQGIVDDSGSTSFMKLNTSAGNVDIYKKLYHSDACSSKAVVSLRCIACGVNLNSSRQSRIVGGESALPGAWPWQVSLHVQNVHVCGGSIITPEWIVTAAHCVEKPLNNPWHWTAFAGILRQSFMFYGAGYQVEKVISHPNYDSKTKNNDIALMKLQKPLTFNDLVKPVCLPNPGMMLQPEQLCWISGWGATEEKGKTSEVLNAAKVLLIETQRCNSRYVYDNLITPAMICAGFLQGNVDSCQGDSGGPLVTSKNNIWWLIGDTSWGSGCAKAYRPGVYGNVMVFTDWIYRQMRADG

[6] = biological target: T6, Human TMPRSS2 expressed on cells; experiment: cell-based or functional assay
[7] = biological target: T6, Human TMPRSS2 expressed on cells; experiment: cell-based or functional assay; remark: listed apart in the source
[8] = biological target: Cynomolgus monkey TMPRSS2 expressed on cells (cynomolgus monkey); experiment: flow cytometry, Daudi transfectant
[9] = biological target: T5, Human TMPRSS2 recombinant protein, …; experiment: SPR (BIAcore); rounded repeat of Table 1
[10] = biological target: T6, Human TMPRSS2 expressed on cells; experiment: flow cytometry, Daudi transfectant
[11] = biological target: Mouse TMPRSS2 expressed on cells (mouse, UniProt Q9JIQ8 1-490); experiment: flow cytometry, Daudi transfectant
[12] = biological target: T5, Human TMPRSS2 recombinant protein, …; experiment: SPR (BIAcore), captured mAb, soluble human TMPRSS2 extracellular region

T5 sequence (O15393 other isoform, or with tags, fused parts or gaps limits assumed): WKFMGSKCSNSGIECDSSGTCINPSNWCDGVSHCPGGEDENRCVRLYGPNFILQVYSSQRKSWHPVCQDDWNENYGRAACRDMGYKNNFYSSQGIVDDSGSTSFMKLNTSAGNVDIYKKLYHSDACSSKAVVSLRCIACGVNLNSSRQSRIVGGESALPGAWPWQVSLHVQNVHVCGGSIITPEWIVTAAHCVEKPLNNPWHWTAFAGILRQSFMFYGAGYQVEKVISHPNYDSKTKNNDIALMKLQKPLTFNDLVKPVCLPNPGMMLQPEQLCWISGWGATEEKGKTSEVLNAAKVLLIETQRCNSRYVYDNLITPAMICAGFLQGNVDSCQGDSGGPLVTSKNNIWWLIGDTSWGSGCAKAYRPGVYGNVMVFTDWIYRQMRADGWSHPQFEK
T6 sequence (O15393 whole entry): as the sequence (O15393 whole entry) above
Chain of TMPRSS-11F (Q6ZWK6 54-438 limits assumed): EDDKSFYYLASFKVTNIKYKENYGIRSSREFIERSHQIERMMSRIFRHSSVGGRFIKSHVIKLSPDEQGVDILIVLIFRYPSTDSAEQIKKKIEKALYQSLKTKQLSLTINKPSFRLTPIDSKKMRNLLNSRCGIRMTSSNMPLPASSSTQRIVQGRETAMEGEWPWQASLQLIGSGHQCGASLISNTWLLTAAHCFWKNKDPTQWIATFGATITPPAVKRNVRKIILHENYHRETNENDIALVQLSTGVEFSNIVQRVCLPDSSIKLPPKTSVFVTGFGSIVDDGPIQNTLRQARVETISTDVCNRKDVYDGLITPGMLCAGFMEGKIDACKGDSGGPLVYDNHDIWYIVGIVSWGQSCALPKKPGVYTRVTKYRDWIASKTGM
Chain of Mouse TMPRSS2 expressed on cells (Q9JIQ8 whole entry): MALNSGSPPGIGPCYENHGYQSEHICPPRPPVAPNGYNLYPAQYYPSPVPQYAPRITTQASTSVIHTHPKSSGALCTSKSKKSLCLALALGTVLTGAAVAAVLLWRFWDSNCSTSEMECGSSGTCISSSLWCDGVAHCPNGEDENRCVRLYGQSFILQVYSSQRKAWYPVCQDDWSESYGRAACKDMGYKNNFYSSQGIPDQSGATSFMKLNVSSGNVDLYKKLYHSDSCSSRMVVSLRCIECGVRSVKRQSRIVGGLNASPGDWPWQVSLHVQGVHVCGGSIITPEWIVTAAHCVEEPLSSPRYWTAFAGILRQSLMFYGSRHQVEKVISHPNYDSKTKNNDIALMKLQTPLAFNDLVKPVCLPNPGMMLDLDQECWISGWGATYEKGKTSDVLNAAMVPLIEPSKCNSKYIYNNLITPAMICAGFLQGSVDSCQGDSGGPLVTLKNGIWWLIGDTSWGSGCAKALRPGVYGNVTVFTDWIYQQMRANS

Row | Molecule | koff [3] [s⁻¹] | kon [3] [M⁻¹ s⁻¹] | APC median at 3 µg/ml [4] | Kd [3] [nM] | binding result (TMPRSS-11D) | binding result (TMPRSS-11E) | binding result (TMPRSS-11F) | binding result (TMPRSS-13) | further results
1 | 1831_15: mouse anti-human TMPRSS2 monoclonal antibody, IgG2b κ; VH SEQ ID NO: 98, VL SEQ ID NO: 99 (antibody, V domains shown, mouse IgG2b kappa constant regions; 1831_15 VH; 1831_15 VL) VH: QVQLQQPGAELVKPGASVKLSCKASGYSFTTYWMHWVRQRPGQGLEWIGIIHPNSGTTNYNEKFKSKASLTVDKSSSTAYMQLSSLTSEDSAVYYCARLLWDYFDYWGQGTTLTVSS VL: DIVMSQSPSSLAVSAGEKVTMSCKSSQSLLNSRTRKNFLAWYQQKPGQSPKLLIYWASTRESGVPDRFTGSGSGTDFTLTISSVQAEDLAVYYCKQSYNLYTFGGGTKLEIK |  |  |  |  |  |  |  |  | Cross-reactivity [1]: Cynomolgus monkey; ka (human TMPRSS2 [2]): 563000 M⁻¹ s⁻¹; kd (human TMPRSS2 [2]): 0.000236 s⁻¹
2 | humanized 2228-15 IgG4 (S108P) prototype #4 (antibody, V domains shown, also called humanized #4; hu #4) VH: EIQLVQSGAEVKKPGSSVKVSCKASGYTFTDYYINWMRQAPGQGLEWIGWIFPGSGSSYYNAIFKGRATLTVDTSTNTAYMELSSLRSEDTAFYFCARGDFGNFGGFFTYWGQGTLVTVSS VL: DIVMTQSPDSLAVSLGERATINCRASKSVSTSGYSFMHWYQQKPGQPPKLLIYLASNLESGVPDRFSGSGSGTDFTLTIRPLQAEDVAVYYCQHSRELPLTFGQGTKLEIK | 0.0001 | 1.44e+06 | 1990 |  |  |  |  |  | 
3 | humanized 752-1 IgG4 (S108P) prototype #4 (antibody, V domains shown, also called humanized #4; hu #4) VH: QVQLQQSGTGLARPGASVKLSCKASGYTFTSCGISWVTQRAGQGLEWIGEIYPRGGNTYYNEKFKGKATLTADKSSSSAYMELRGLTAEDSAVYFCARENGNYDPLFAYWGQGTTLTVSS VL: DIQMTQSPSSLSASVGDRVTITCKASQDINKYIAWYQQKPGKAPKLLIHYTSTLQPGVPSRFSGSGSGTDFTFTISSLQPEDIATYYCLQYYNLWTFGGGTKVEIK | 0.00611 | 2.5e+06 | 1650 | 2.44 |  |  |  |  | 
4 | 752_1 antibody (antibody, V domains shown) VH: QVQLQQSGAELARPGASVKLSCKASGYTFTSCGISWVKQRTGQGLEWIGEIYPRGGNTYYNEKFKGKATLTADKSSSTAYMELRSLTSEDSAVYFCARENGNYDPLFAYWGQGTLVTVSA VL: DIQMTQSPSSLSASLGGKVTITCKASQDINKYIAWYQHKPGKGPRLLIHYTSTLQPGIPSRFSGSGSGRDYSFSIYNLEPEDIATYYCLQYYNLWTFGGGTKLEIK |  |  |  |  | no binding (tested: 10 µg/mL) | no binding (tested: 10 µg/mL) | no binding (tested: 10 µg/mL) | no binding (tested: 10 µg/mL) | 
5 | humanized 2228-15 IgG4 (S108P) prototype #1 (antibody, V domains shown, also called humanized #1; hu #1) VH: QVQLVQSGAEVKKPGASVKVSCKASGYTFTDYYINWVRQAPGQGLEWMGWIFPGSGSSYYNAIFKGRVTMTRDTSISTAYMELSRLRSDDTAVYYCARGDFGNFGGFFTYWGQGTLVTVSS VL: DVVMTQSPLSLPVTLGQPASISCRASKSVSTSGYSFMHWFQQRPGQSPRRLIYLASNLESGVPDRFSGSGSGTDFTLKISRVEAEDVGVYYCQHSRELPLTFGGGTKVEIK | 0.0641 | 5.22e+06 | 579 | 12.3 |  |  |  |  | 
6 | humanized 2228-15 IgG4 (S108P) prototype #3 (antibody, V domains shown, also called humanized #3; hu #3) VH: EIQLVQSGAEVKKPGSSVKVSCKASGYTFTDYYINWMRQAPGQGLEWIGWIFPGSGSSYYNAIFKGRATLTVDTSTNTAYMELSSLRSEDTAFYFCARGDFGNFGGFFTYWGQGTLVTVSS VL: DVVMTQSPLSLPVTLGQPASISCRASKSVSTSGYSFMHWFQQRPGQSPRRLIYLASNLESGVPDRFSGSGSGTDFTLKISRVEAEDVGVYYCQHSRELPLTFGGGTKVEIK | 0.000774 | 825000 | 862 | 0.938 |  |  |  |  | 
7 | 2114_16: mouse anti-human TMPRSS2 monoclonal antibody, IgG2c λ; VH SEQ ID NO: 106, VL SEQ ID NO: 107 (antibody, V domains shown, mouse IgG2c lambda constant regions; 2114_16 VH; 2114_16 VL) VH: EVQLQQSGPELVKPGASVKISCKASGYTFTDYYMNWVKRRHGKSLEWIGNINPNNGGTSYNQKFKGKATLTVDKSSSTAYMELRSLTSEDSVVYYCAREGDLFPFAYWGQGTLVTVSA VL: QAVVTQESALTTSPGETVTLTCRSSIGTVTTSNFANWVQEKPDHLFTGLIGASNNRAPGVPARFSGSLIGDKAALTITGAQTEDEAIYFCALWFSNHWVFGGGTKLTVL |  |  |  |  |  |  |  |  | competition with 1831_15 antibody for binding to human TMPRSS2 (human TMPRSS2 [5]): weakly competed; ka (human TMPRSS2 [2]): 570000 M⁻¹ s⁻¹; kd (human TMPRSS2 [2]): 0.000591 s⁻¹
8 | 2020_12 antibody (antibody, V domains shown) VH: QVQLQQPGAELAKPGASVKLSCKASGYTFTSYWMHWVKQRPGQGLEWIGLIPPNSGSSNYNEKFKSKATLTVDKSSRTAYMQLSSLTSEDSAVYYCARWDYGSSYGYFDVWGTGTTVTVSS VL: DIVLTQSPASLAVSLGQRATISCRASESVSTSGYSYMHWYQQKPGQPPKLLIYLASNLESGVPVRFSGSGSGTDFTLNIHPVEEEDAATYYCQHSRELPPTFGAGTKLELK |  |  |  |  | no binding (tested: 10 µg/mL) | no binding (tested: 10 µg/mL) | no binding (tested: 10 µg/mL) | no binding (tested: 10 µg/mL) | Activity: Calu-3 Inhibiton [6]: 66; IC90, First run; live SARS-CoV-2 infection of Calu-3 cells [7]: 0.23 mg/L; IC90, Second run; live SARS-CoV-2 infection of Calu-3 cells [7]: 0.13 mg/L; Q2 (percent of cells GFP+ and stained) [8]: 0.88; Kd [9]: 2.7 nM; Q2 (percent of cells GFP+ and stained) [10]: 99.9; Q2 (percent of cells GFP+ and stained) [11]: 48.5; Kd [12]: 2.69 nM; koff [12]: 0.00176 s⁻¹; kon [12]: 654000 M⁻¹ s⁻¹
9 | 2228_15 antibody (antibody, V domains shown) VH: QVQLQQSGPELVKPGTSVKISCKASGYTFTDYYINWVKQRPGQGLEWIGWIFPGSGSSYYNAIFKGKATLTVDTSSNTAHMSLSSLTSDDSAVYFCARGDFGNFGGFFTYWGQGTLVTVSA VL: DVVVTQSPASLAVSLGQRATISCRASKSVSTSGYSFMHWYQQKPGQPPKLLIYLASNLESGVPARFSGSGSGTDFILNIHPVEEEDAATYYCQHSRELPLTFGAGTKLELK |  |  |  |  | no binding (tested: 10 µg/mL) | no binding (tested: 10 µg/mL) | no binding (tested: 10 µg/mL) | no binding (tested: 10 µg/mL) | Kd [9]: 8.4 nM; Kd [12]: 8.41 nM
